Starred links: 1 amine or outer side, 2 acyl side, 3 side chain; linkers in the order of their positions; H or OH if unused. Non-standard residues stand in square brackets, D forms with d. Groups on a side chain read outwards from the residue. No end group written: not given here. *: point of attachment. C20 diacid = O=C(O)CCCCCCCCCCCCCCCCCCC(=O)*; γGlu = O=C(O)[C@H](CCC(=O)[*:2])N[*:1]; αMeF = C[C@](N)(Cc1ccccc1)C(=O)O; 4Pal = N[C@@H](Cc1ccncc1)C(=O)O; αMeL = CC(C)C[C@](C)(N)C(=O)O; AEEA = NCCOCCOCC(=O)O; Aib = CC(C)(N)C(=O)O
Experiments:
[1] = biological target: T1, human glucose-dependent insulinotropic polypeptide (GIP) receptor (human, UniProt P48546 22-466); assay: SPA, displacement of [125I]-GIP from hGIPR membranes, 0.1% bacitracin
T1 construct: whole, on cells; Assayed as crude membranes of stably transfected CHO cells; also called hGIPR; human GIP receptor
T1 sequence (looked up): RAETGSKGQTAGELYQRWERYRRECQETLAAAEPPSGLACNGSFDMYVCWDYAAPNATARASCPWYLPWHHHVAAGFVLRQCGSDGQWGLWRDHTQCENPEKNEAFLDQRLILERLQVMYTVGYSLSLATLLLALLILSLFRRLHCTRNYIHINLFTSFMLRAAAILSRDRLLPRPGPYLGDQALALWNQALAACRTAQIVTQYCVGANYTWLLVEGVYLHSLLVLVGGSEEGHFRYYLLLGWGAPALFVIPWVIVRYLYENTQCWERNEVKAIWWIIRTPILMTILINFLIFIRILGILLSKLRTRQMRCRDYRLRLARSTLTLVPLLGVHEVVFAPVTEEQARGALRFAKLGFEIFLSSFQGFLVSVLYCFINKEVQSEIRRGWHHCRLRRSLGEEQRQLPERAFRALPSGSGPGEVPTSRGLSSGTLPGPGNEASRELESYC

human glucagon receptor = biological target: T2, human glucagon receptor (human, UniProt P47871 26-477); assay: SPA, displacement of [125I]-Gcg from hGcgR membranes, 0.1% bacitracin
T2 construct: whole, on cells; Assayed as crude membranes of stably transfected HEK293 cells; also called hGcgR; GcgR
T2 sequence (P47871 26-477): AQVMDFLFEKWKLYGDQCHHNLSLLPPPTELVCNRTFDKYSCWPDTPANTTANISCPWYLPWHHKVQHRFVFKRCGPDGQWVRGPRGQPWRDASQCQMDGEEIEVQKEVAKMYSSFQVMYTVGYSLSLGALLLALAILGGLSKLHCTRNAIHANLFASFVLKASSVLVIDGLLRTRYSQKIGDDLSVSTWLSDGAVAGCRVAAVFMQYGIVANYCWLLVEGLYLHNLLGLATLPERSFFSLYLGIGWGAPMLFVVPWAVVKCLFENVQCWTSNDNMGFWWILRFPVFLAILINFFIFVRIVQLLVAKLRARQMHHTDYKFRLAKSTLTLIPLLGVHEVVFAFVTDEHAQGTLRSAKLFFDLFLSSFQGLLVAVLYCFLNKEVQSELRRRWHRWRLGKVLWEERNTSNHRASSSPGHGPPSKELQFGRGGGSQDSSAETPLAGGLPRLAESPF
Outline: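 Binding buffer: 25 mM HEPES pH 7.4, 2.5 mM CaCl₂, 1 mM MgCl₂, 0.003% Tween-20, protease inhibitors without EDTA. Counted by scintillation after 12 h incubation/settling at room temperature. Four-parameter nonlinear fit; Kᵢ given as geometric mean ± SEM of independent replicates run on different days.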

human GLP-1 receptor = biological target: T3, human GLP-1 receptor (human, UniProt P43220 24-463); assay: SPA, displacement of [125I]-GLP-1 from hGLP-1R membranes, 0.1% bacitracin
T3 construct: whole, on cells; Assayed as crude membranes of stably transfected HEK293 cells; also called hGLP1R; hGLP-1R
Outline: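 Binding buffer: 25 mM HEPES pH 7.4, 2.5 mM CaCl₂, 1 mM MgCl₂, 0.1% bacitracin, 0.003% Tween-20, protease inhibitors without EDTA. Four-parameter nonlinear regression; Kᵢ given as geometric mean ± SEM, n = independent replicates run on different days.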

B1: Example 50 (peptide)
peptide: Y[Aib]EGT[αMeF]ISDYSI[αMeL]LDKK([AEEA-AEEA-γGlu-C20 diacid])HQ[Aib]DFVE[4Pal]LLAGGPSSGAPPPS-NH2
modifications: N-terminus assumed
SMILES: CC[C@H](C)[C@H](NC(=O)[C@H](CO)NC(=O)[C@H](Cc1ccc(O)cc1)NC(=O)[C@H](CC(=O)O)NC(=O)[C@H](CO)NC(=O)[C@@H](NC(=O)[C@](C)(Cc1ccccc1)NC(=O)[C@@H](NC(=O)CNC(=O)[C@H](CCC(=O)O)NC(=O)C(C)(C)NC(=O)[C@@H](N)Cc1ccc(O)cc1)[C@@H](C)O)[C@@H](C)CC)C(=O)N[C@@](C)(CC(C)C)C(=O)N[C@@H](CC(C)C)C(=O)N[C@@H](CC(=O)O)C(=O)N[C@@H](CCCCN)C(=O)N[C@@H](CCCCNC(=O)COCCOCCNC(=O)COCCOCCNC(=O)CC[C@H](NC(=O)CCCCCCCCCCCCCCCCCCC(=O)O)C(=O)O)C(=O)N[C@@H](Cc1c[nH]cn1)C(=O)N[C@@H](CCC(N)=O)C(=O)NC(C)(C)C(=O)N[C@@H](CC(=O)O)C(=O)N[C@@H](Cc1ccccc1)C(=O)N[C@H](C(=O)N[C@@H](CCC(=O)O)C(=O)N[C@@H](Cc1ccncc1)C(=O)N[C@@H](CC(C)C)C(=O)N[C@@H](CC(C)C)C(=O)N[C@@H](C)C(=O)NCC(=O)NCC(=O)N1CCC[C@H]1C(=O)N[C@@H](CO)C(=O)N[C@@H](CO)C(=O)NCC(=O)N[C@@H](C)C(=O)N1CCC[C@H]1C(=O)N1CCC[C@H]1C(=O)N1CCC[C@H]1C(=O)N[C@@H](CO)C(N)=O)C(C)C
Q: With B1 as the binder, how does the Ki [1] read?
A: 0.0501 nM

Q: What about the Ki (human glucagon receptor) of the same binder?
A: 23.4 nM

Q: And the Ki (human GLP-1 receptor)?
A: 34.9 nM

B2: Example 88 (peptide)
peptide: YXEGTXISDYSIXLDKKHQXDFVEXLLEAGPSSGAPPPS
modifications: Aib2; Iva6; αMeL13; K17((2-[2-(2-Amino-ethoxy)-ethoxy]-acetyl)2-(γ-Glu)-CO-(CH2)18-CO2H); Aib20; 4-Pal25; C-terminal amide
Q: For B2, which Ki [1] is on record?
A: 0.083 nM

Q: And the Ki (human glucagon receptor)?
A: 788 nM

Q: And the Ki (human GLP-1 receptor)?
A: 261 nM

B3: Example 74 (peptide)
peptide: YXEGTXISDYSIXLDKKHQXDFVEXLLEGGPSSGAPPPS
modifications: Aib2; Iva6; αMeL13; K17((2-[2-(2-Amino-ethoxy)-ethoxy]-acetyl)2-(γ-Glu)-CO-(CH2)18-CO2H); Aib20; 4-Pal25; C-terminal amide
Q: How did the Ki [1] turn out when B3 was run?
A: 0.0287 nM

Q: What about the Ki (human glucagon receptor) of the same binder?
A: 511 nM

Q: What about the Ki (human GLP-1 receptor) of the same binder?
A: 395 nM

B4: Example 61 (peptide)
peptide: Y[Aib]EGT[αMeF]ISDYSI[αMeL]LDKK([AEEA-AEEA-γGlu-C20 diacid])HQ[Aib]EFVE[4Pal]LLATGPSSGAPPPS-NH2
modifications: N-terminus assumed
SMILES: CC[C@H](C)[C@H](NC(=O)[C@H](CO)NC(=O)[C@H](Cc1ccc(O)cc1)NC(=O)[C@H](CC(=O)O)NC(=O)[C@H](CO)NC(=O)[C@@H](NC(=O)[C@](C)(Cc1ccccc1)NC(=O)[C@@H](NC(=O)CNC(=O)[C@H](CCC(=O)O)NC(=O)C(C)(C)NC(=O)[C@@H](N)Cc1ccc(O)cc1)[C@@H](C)O)[C@@H](C)CC)C(=O)N[C@@](C)(CC(C)C)C(=O)N[C@@H](CC(C)C)C(=O)N[C@@H](CC(=O)O)C(=O)N[C@@H](CCCCN)C(=O)N[C@@H](CCCCNC(=O)COCCOCCNC(=O)COCCOCCNC(=O)CC[C@H](NC(=O)CCCCCCCCCCCCCCCCCCC(=O)O)C(=O)O)C(=O)N[C@@H](Cc1c[nH]cn1)C(=O)N[C@@H](CCC(N)=O)C(=O)NC(C)(C)C(=O)N[C@@H](CCC(=O)O)C(=O)N[C@@H](Cc1ccccc1)C(=O)N[C@H](C(=O)N[C@@H](CCC(=O)O)C(=O)N[C@@H](Cc1ccncc1)C(=O)N[C@@H](CC(C)C)C(=O)N[C@@H](CC(C)C)C(=O)N[C@@H](C)C(=O)N[C@H](C(=O)NCC(=O)N1CCC[C@H]1C(=O)N[C@@H](CO)C(=O)N[C@@H](CO)C(=O)NCC(=O)N[C@@H](C)C(=O)N1CCC[C@H]1C(=O)N1CCC[C@H]1C(=O)N1CCC[C@H]1C(=O)N[C@@H](CO)C(N)=O)[C@@H](C)O)C(C)C
Q: With B4 as the binder, how does the Ki [1] read?
A: 0.0665 nM

Q: What about the Ki (human glucagon receptor) of the same binder?
A: 80.4 nM

Q: What about the Ki (human GLP-1 receptor) of the same binder?
A: 135 nM

B5: Example 60 (peptide)
peptide: Y[Aib]EGT[αMeF]ISDYSI[αMeL]LDKK([AEEA-AEEA-γGlu-C20 diacid])HQ[Aib]EFVE[4Pal]LLAQGPSSGAPPPS-NH2
modifications: N-terminus assumed
SMILES: CC[C@H](C)[C@H](NC(=O)[C@H](CO)NC(=O)[C@H](Cc1ccc(O)cc1)NC(=O)[C@H](CC(=O)O)NC(=O)[C@H](CO)NC(=O)[C@@H](NC(=O)[C@](C)(Cc1ccccc1)NC(=O)[C@@H](NC(=O)CNC(=O)[C@H](CCC(=O)O)NC(=O)C(C)(C)NC(=O)[C@@H](N)Cc1ccc(O)cc1)[C@@H](C)O)[C@@H](C)CC)C(=O)N[C@@](C)(CC(C)C)C(=O)N[C@@H](CC(C)C)C(=O)N[C@@H](CC(=O)O)C(=O)N[C@@H](CCCCN)C(=O)N[C@@H](CCCCNC(=O)COCCOCCNC(=O)COCCOCCNC(=O)CC[C@H](NC(=O)CCCCCCCCCCCCCCCCCCC(=O)O)C(=O)O)C(=O)N[C@@H](Cc1c[nH]cn1)C(=O)N[C@@H](CCC(N)=O)C(=O)NC(C)(C)C(=O)N[C@@H](CCC(=O)O)C(=O)N[C@@H](Cc1ccccc1)C(=O)N[C@H](C(=O)N[C@@H](CCC(=O)O)C(=O)N[C@@H](Cc1ccncc1)C(=O)N[C@@H](CC(C)C)C(=O)N[C@@H](CC(C)C)C(=O)N[C@@H](C)C(=O)N[C@@H](CCC(N)=O)C(=O)NCC(=O)N1CCC[C@H]1C(=O)N[C@@H](CO)C(=O)N[C@@H](CO)C(=O)NCC(=O)N[C@@H](C)C(=O)N1CCC[C@H]1C(=O)N1CCC[C@H]1C(=O)N1CCC[C@H]1C(=O)N[C@@H](CO)C(N)=O)C(C)C
Q: Which results are given for B5?
A: Ki [1]: 0.039 nM; Ki (human glucagon receptor): 26.2 nM; Ki (human GLP-1 receptor): 51.4 nM

B6: Example 62 (peptide)
peptide: Y[Aib]EGT[αMeF]ISDYSI[αMeL]LDKK([AEEA-AEEA-γGlu-C20 diacid])HQ[Aib]EFVE[4Pal]LLAAGPSSGAPPPS-NH2
modifications: N-terminus assumed
SMILES: CC[C@H](C)[C@H](NC(=O)[C@H](CO)NC(=O)[C@H](Cc1ccc(O)cc1)NC(=O)[C@H](CC(=O)O)NC(=O)[C@H](CO)NC(=O)[C@@H](NC(=O)[C@](C)(Cc1ccccc1)NC(=O)[C@@H](NC(=O)CNC(=O)[C@H](CCC(=O)O)NC(=O)C(C)(C)NC(=O)[C@@H](N)Cc1ccc(O)cc1)[C@@H](C)O)[C@@H](C)CC)C(=O)N[C@@](C)(CC(C)C)C(=O)N[C@@H](CC(C)C)C(=O)N[C@@H](CC(=O)O)C(=O)N[C@@H](CCCCN)C(=O)N[C@@H](CCCCNC(=O)COCCOCCNC(=O)COCCOCCNC(=O)CC[C@H](NC(=O)CCCCCCCCCCCCCCCCCCC(=O)O)C(=O)O)C(=O)N[C@@H](Cc1c[nH]cn1)C(=O)N[C@@H](CCC(N)=O)C(=O)NC(C)(C)C(=O)N[C@@H](CCC(=O)O)C(=O)N[C@@H](Cc1ccccc1)C(=O)N[C@H](C(=O)N[C@@H](CCC(=O)O)C(=O)N[C@@H](Cc1ccncc1)C(=O)N[C@@H](CC(C)C)C(=O)N[C@@H](CC(C)C)C(=O)N[C@@H](C)C(=O)N[C@@H](C)C(=O)NCC(=O)N1CCC[C@H]1C(=O)N[C@@H](CO)C(=O)N[C@@H](CO)C(=O)NCC(=O)N[C@@H](C)C(=O)N1CCC[C@H]1C(=O)N1CCC[C@H]1C(=O)N1CCC[C@H]1C(=O)N[C@@H](CO)C(N)=O)C(C)C
Q: With B6 as the binder, how does the Ki [1] read?
A: 0.0414 nM

Q: And the Ki (human glucagon receptor)?
A: 31.3 nM

Q: And the Ki (human GLP-1 receptor)?
A: 47.6 nM

B7: Example 48 (peptide)
peptide: Y[Aib]EGTFISDYSI[αMeL]LDKK([AEEA-AEEA-γGlu-C20 diacid])HQ[Aib]DFVE[4Pal]LLAGGPSSGAPPPS-NH2
modifications: N-terminus assumed
SMILES: CC[C@H](C)[C@H](NC(=O)[C@H](Cc1ccccc1)NC(=O)[C@@H](NC(=O)CNC(=O)[C@H](CCC(=O)O)NC(=O)C(C)(C)NC(=O)[C@@H](N)Cc1ccc(O)cc1)[C@@H](C)O)C(=O)N[C@@H](CO)C(=O)N[C@@H](CC(=O)O)C(=O)N[C@@H](Cc1ccc(O)cc1)C(=O)N[C@@H](CO)C(=O)N[C@H](C(=O)N[C@@](C)(CC(C)C)C(=O)N[C@@H](CC(C)C)C(=O)N[C@@H](CC(=O)O)C(=O)N[C@@H](CCCCN)C(=O)N[C@@H](CCCCNC(=O)COCCOCCNC(=O)COCCOCCNC(=O)CC[C@H](NC(=O)CCCCCCCCCCCCCCCCCCC(=O)O)C(=O)O)C(=O)N[C@@H](Cc1c[nH]cn1)C(=O)N[C@@H](CCC(N)=O)C(=O)NC(C)(C)C(=O)N[C@@H](CC(=O)O)C(=O)N[C@@H](Cc1ccccc1)C(=O)N[C@H](C(=O)N[C@@H](CCC(=O)O)C(=O)N[C@@H](Cc1ccncc1)C(=O)N[C@@H](CC(C)C)C(=O)N[C@@H](CC(C)C)C(=O)N[C@@H](C)C(=O)NCC(=O)NCC(=O)N1CCC[C@H]1C(=O)N[C@@H](CO)C(=O)N[C@@H](CO)C(=O)NCC(=O)N[C@@H](C)C(=O)N1CCC[C@H]1C(=O)N1CCC[C@H]1C(=O)N1CCC[C@H]1C(=O)N[C@@H](CO)C(N)=O)C(C)C)[C@@H](C)CC
Q: What does the source list for B7?
A: Ki [1]: 0.0498 nM; Ki (human glucagon receptor): 267 nM; Ki (human GLP-1 receptor): 211 nM

Reference: patent US20210032299A1 (Eli Lilly, published 2021)
